Patent publication US20200369755A1 (PROTHENA BIOSCIENCES, published 2020)
Where no end group is shown, it is not given here.

Legend:
Assay in all cases: peptide ELISA, biotinylated peptide on streptavidin plate; background-subtracted absorbance; positive from 0.2
127-141 = biological target: T1, 127-141 (also: biotinylated, site not given here)
T1 peptide: SGEPPKSGDRSGYSS
Method: (§1) Additional peptides were used to model potential post-translational modifications of the C- and N-terminal ends of the protein.
(§2) Biotinylated peptides were bound to separate wells of a streptavidin-coated ELISA plate. The plate was blocked and treated with murine 3D6, followed by incubation with a horseradish peroxidase-conjugated anti-mouse antibody. After thorough washing, OPD was applied to the plate and allowed to develop. The plate was read at 450 nm absorbance. Background subtraction was performed with absorbance values from wells containing no primary antibody, and a threshold for positive binding was set to 0.2 absorbance units. […] (FIG. 1)

[1] = biological target: T2, 369-383 (amidated C-term) (also: biotinylated, site not given here)
T2 peptide: TLADEVSASLAKQGL-NH2
Method: as §1, §2

46-60 = biological target: T3, 46-60 (also: biotinylated, site not given here)
T3 construct: also called tau peptide 46-60 (4R0N numbering)
T3 peptide: EEAGIGDTPSLEDEA
Method: as §1, §2

163-177 = biological target: T4, 163-177 (also: biotinylated, site not given here)
T4 peptide: REPKKVAVVRTPPKS
Method: as §1, §2

352-366 = biological target: T5, 352-366 (also: biotinylated, site not given here)
T5 construct: also called tau peptide 352-366 (4R0N numbering)
T5 peptide: NVSSTGSIDMVDSPQ
Method: as §1, §2

253-267 = biological target: T6, 253-267 (also: biotinylated, site not given here)
T6 construct: also called tau peptide 253-267 (4R0N numbering)
T6 peptide: KPVDLSKVTSKCGSL
Method: as §1, §2

181-195 = biological target: T7, 181-195 (also: biotinylated, site not given here)
T7 peptide: AKSRLQTAPVPMPDL
Method: as §1, §2

154-168 = biological target: T8, 154-168 (biotinylated)
T8 construct: also called tau peptide 154-168 (4R0N numbering)
Method: as §1, §2

118-132 = biological target: T9, 118-132 (also: biotinylated, site not given here)
T9 peptide: PPAPKTPPSSGEPPK
Method: as §1, §2

37-51 = biological target: T10, 37-51 (also: biotinylated, site not given here)
T10 construct: also called tau peptide 37-51 (4R0N numbering)
T10 peptide: GDTDAGLKAEEAGIG
Method: as §1, §2

289-303 = biological target: T11, 289-303 (also: biotinylated, site not given here)
T11 construct: also called tau peptide 289-303 (4R0N numbering)
T11 peptide: KDRVQSKIGSLDNIT
Method: as §1, §2

369-383 (free C-term) = biological target: T12, 369-383 (free C-term) (also: biotinylated, site not given here)
T12 peptide: TLADEVSASLAKQGL-OH
Method: as §1, §2

91-105 = biological target: T13, 91-105 (also: biotinylated, site not given here)
T13 construct: also called tau peptide 91-105 (4R0N numbering)
T13 peptide: TKIATPRGAAPPGQK
Method: as §1, §2

145-159 = biological target: T14, 145-159 (also: biotinylated, site not given here)
T14 peptide: PGTPGSRSRTPSLPT
Method: as §1, §2

10-24 = biological target: T15, 10-24 (also: biotinylated (site not given here))
T15 construct: also called tau peptide 10-24 (4R0N numbering)
T15 peptide: VMEDHAGTYGLGDRK
Method: as §1, §2

109-123 = biological target: T16, 109-123 (also: biotinylated, site not given here)
T16 construct: also called tau peptide 109-123 (4R0N numbering)
T16 peptide: NATRIPAKTPPAPKT
Method: as §1, §2

82-96 = biological target: T17, 82-96 (also: biotinylated, site not given here)
T17 construct: also called tau peptide 82-96 (4R0N numbering)
T17 peptide: KKAKGADGKTKIATP
Method: as §1, §2

217-231 = biological target: T18, 217-231 (also: biotinylated, site not given here)
T18 construct: also called tau peptide 217-231 (4R0N numbering)
T18 peptide: VQIINKKLDLSNVQS
Method: as §1, §2

208-222 = biological target: T19, 208-222 (also: biotinylated, site not given here)
T19 construct: also called tau peptide 208-222 (4R0N numbering)
T19 peptide: LKHQPGGGKVQIINK
Method: as §1, §2

361-375 = biological target: T20, 361-375 (also: biotinylated, site not given here)
T20 peptide: MVDSPQLATLADEVS
Method: as §1, §2

1-15* (free N-term) = biological target: T21, 1-15* (free N-term) (also: biotinylated (site not given here))
T21 construct: also called tau peptide 1-15 (4R0N numbering), free N-terminus
T21 peptide: H-MAEPRQEFEVMEDHA
Method: as §1, §2

Measured: binding result

B1: murine 3D6 monoclonal antibody (antibody, IgG1, V domains shown)
VH: EVQLQQSGADLVRPGALVKLSCKASGFNIKDYYLHWVRQRPEQGLEWIGWIDPENGDTVYDPKFQGKATITADTSSNTAYLQLGSLTSEDTAVYFCSTLDFWGQGTTLTVSS
VL: not shown
notes: Hybridoma-derived mouse antibody; also called m3D6; mouse 3D6
no binding: 127-141 | [1] | 46-60 | 163-177 | 352-366 | 253-267 | 181-195 | 154-168 | 118-132 | 37-51 | 289-303 | 369-383 (free C-term) | 91-105 | 145-159 | 10-24 | 109-123 | 82-96 | 217-231 | 208-222 | 361-375 | 1-15* (free N-term)
